Results taken from the RNAGym collection of RNA variant scans (doi:10.7554/elife.80360).

B1: HDV Ribozyme (parent)
chain: GGCCGGCAUGGUCCCAGCCUCCUCGCUGGCGCCGGCUGGGCAACAUUCCGAGGGGACCGUCCCCUCGGUAAUGGCGAAUGGGACCCA

Variants of: B1
Assay: self-cleavage, relative activity (ratio to wild type); higher = more cleavage; co-transcriptional

Row | Variant | self-cleavage
1 | C26G G40A | 0.912
2 | U20G G28C | 0
3 | C26A G76U | 1.05
4 | G2C A87G | 0.0671
5 | C33A G82C | 0.17
6 | C13G C44U | 0
7 | C22U C26G | 0.492
8 | C24G G53U | 0.117
9 | C33A C84U | 0.193
10 | G76U C84G | 1.05
11 | C7A A71U | 0.462
12 | U27A G28C | 0
13 | A70C G76A | 0.96
14 | U27A G53U | 0.798
15 | G52A C75G | 0.227
16 | G2U A83G | 0.0815
17 | U72G C75A | 0.0665
18 | G5C U72G | 0.0831
19 | U27C G68C | 0.511
20 | G39C U47G | 0.199
21 | G6A G67A | 0.763
22 | G39U U46A | 0.285
23 | C15G C26A | 0.332
24 | C4U C48A | 0.706

Row | Variant | self-cleavage
25 | G25A C75G | 0.102
26 | G80U C86A | 0.239
27 | A42C G74A | 0.0652
28 | C14G A51C | 0.712
29 | G2U A78C | 0.0198
30 | G52A G59C | 1.05
31 | G28U A70U | 0
32 | C13A A56U | 0.312
33 | G52C A87C | 0.85
34 | U12G G82A | 0.499
35 | G54C G73A | 0.565
36 | G59A G81U | 0.249
37 | C64G G67U | 0.365
38 | C15G G80C | 0.88
39 | C15U U23C | 1.11
40 | C66G A78C | 0.148
41 | A51C G52U | 0.601
42 | G35U C62U | 0.486
43 | C48G C86U | 0.932
44 | C48G C64A | 0.344
45 | A56U A77G | 1.01
46 | U23A C58U | 1.25
47 | C21U C24U | 0.0287
48 | G11A G73U | 0.0769

Row | Variant | self-cleavage
49 | A51C G82A | 0.298
50 | U12C G67U | 0.38
51 | C26A C64A | 1.02
52 | C61G G82A | 0.284
53 | G6C A83U | 0.0692
54 | A16G A83U | 0.415
55 | C24A G54U | 0.736
56 | C24U U46A | 0.53
57 | A16C A87U | 0.615
58 | U46A A87G | 0.712
59 | U23G G52A | 0.554
60 | G28A U60A | 0.178
61 | C62A G81A | 0.332
62 | C13U C36U | 0.256
63 | G2U G40C | 0.0455
64 | C22U C41G | 0.554
65 | U27A C86G | 0.918
66 | C13U U69G | 0.7
67 | G25C A56G | 0.161
68 | C44G A83U | 0.38
69 | C36A A45C | 0
70 | C26U U69A | 1.11
71 | C36G G50C | 0.0437
72 | G34C C66A | 0.35

Row | Variant | self-cleavage
73 | C19A C33U | 0
74 | G68U C75U | 0.225
75 | G59A A78U | 0.346
76 | C4U U72A | 0.415
77 | G25U C61G | 0.0978
78 | G55A G80C | 0.138
79 | U20C C61A | 0.166
80 | C44A G74A | 0.381
81 | C44U G59C | 0.997
82 | A42G G82U | 0.0504
83 | G28U C64A | 0.125
84 | G5A A83G | 0.297
85 | G11A C44G | 0
86 | U20A U72G | 0
87 | U23C G50U | 0.789
88 | C19G C64G | 0.113
89 | G29U U69G | 0.0615
90 | A16C U46A | 0.262
91 | C21G G54A | 0.0496
92 | G40U C58G | 0.598
93 | G29A G67C | 0.237
94 | C49U U72A | 0.965
95 | C18A G74A | 0.0674
96 | U72G A87U | 0.735

Row | Variant | self-cleavage
97 | C7G C24G | 0.123
98 | G17A G82C | 0.166
99 | G11U G50U | 0.583
100 | C3G U46A | 0.253
101 | C22G C66G | 0.0845
102 | C15G U69G | 0.256
103 | A8U A56U | 0.705
104 | C14U A70C | 1.02
105 | G55A A87C | 1.1
106 | C36A U65C | 0.095
107 | C7A G50A | 0.527
108 | C84A A87G | 0.61
109 | A16U G17U | 0.589
110 | C41U C58G | 0.889
111 | C49A G50U | 0.816
112 | U37A G59C | 0.224
113 | C18A G76C | 0.14
114 | U37C C64U | 1.19
115 | G5U C62A | 0.369
116 | A16C G40U | 0.73
117 | C57A U60G | 0.831
118 | G5C G40C | 0.256
119 | C24U A42G | 0.0923
120 | G29C A51G | 0

Row | Variant | self-cleavage
121 | U12C U65G | 0.323
122 | C7G G28U | 0.0875
123 | C49A U69A | 0.808
124 | C7A G29U | 0.0875
125 | C48U C58U | 0.904
126 | U12A A51U | 0.277
127 | C30U A45U | 0.32
128 | C19G G29U | 0
129 | G54C C57G | 1.05
130 | G2A G10U | 0.0837
131 | C4A G6C | 0.0594
132 | C32G C62G | 0.277
133 | C30U C63G | 0.47
134 | A16U A43C | 0.32
135 | C32A G82U | 0.104
136 | G52U G59C | 0.765
137 | C3G A71C | 0.261
138 | C61U U65A | 0.616
139 | G52A U65C | 0.954
140 | G81A C86U | 0.546
141 | G52C G55A | 0.901
142 | G17A G74C | 0.0346
143 | C26U C84U | 1.05
144 | U37G A87U | 0.148

Row | Variant | self-cleavage
145 | A8C G53C | 0.739
146 | C15U G38A | 0.188
147 | G80C G81C | 0.186
148 | C14U U47C | 1.13
149 | G29C U79A | 0.147
150 | A71U G73A | 0.432
151 | C63G C66G | 0.201
152 | U23G U69A | 0.499
153 | U12G G53A | 0.88
154 | C41U C48A | 1.07
155 | G1A A16U | 0
156 | G29A G74U | 0.073
157 | U9G C32U | 0.623
158 | A8U U72G | 0.289
159 | C26A U69G | 1.15
160 | G55U G73U | 0.295
161 | G11C G25U | 0
162 | U12G C36U | 0.415
163 | G25C G34C | 0.0426
164 | G74A G76C | 0.464
165 | A83C C86U | 0.376
166 | G1C G28A | 0.0405
167 | C61A C62A | 0.904
